Data as given in paper PMC10844294, “A monoclonal antibody targeting a large surface of the receptor binding motif shows pan-neutralizing SARS-CoV-2 activity” (Nature Communications, 2024).

Target: T1, B.1.1.529 (BA.1) S1 + S2 trimer-His Recombinant Protein (SARS-CoV-2 Omicron BA.1 (B.1.1.529), strain)
T1 construct: also called Omicron BA.1 trimeric spike; BA.1 spike
Assay: cryo-EM structure
Settings: both partners purified

B1: 17T2 Fab fragment (Fab, V domains shown)
VH: QVQLVQSGPEVKKPGTSVKVSCKAPVFTFSISAVQWVRQARGQRLEWIGWIVVGSGNTNYAQNFQERVTITTDMSTGTVYMELSGLRSEDTAMYYCAAPYCNRTTCYDGFDLWGQGTMVTVSS
VL: EIVLTQSPGTLSLSPGERATLSCRASQSISSNYLAWYQQKPGQAPRLLIYGASSRATGIPDRFSGSGSGTDFTLSINRLEPEDFAMYYCQHYGGLSRWTFGQGTKVEIK
notes: also called Fab 17T2
With B1 the “stoichiometry N” value was 3 Fab per spike trimer.
